The values below come from patent US20230312753A1 (IMMUNORIZON, published 2023).

Changes are numbered by the printed parent chain.

In experiment [1] the target is T1, NKG2A/CD94 on CHO cells (CHOK1-NKG2A-CD94) (human, UniProt P26715 1-233; Q13241 1-179, limits assumed).
T1 construct: whole, on cells; also called CHO cells over-expressing NKG2A/CD94; CHO cell line over expressing ectopic NKG2A
The experiment can be described thus: FACS on CHO cells over-expressing human NKG2A (FIG. 45F), reference IM-1062. As for the experimental part: Suspension cultured cells was harvested directly, and adherent cell were digested using TrypLE Express Enzyme (cat: 12604-013, supplier Life technologies). Centrifuge at 1000 rpm for 5 min and discard the supernatant. Cells are suspended at a concentration of 2×10⁶/mL in FACS buffer (2% FBS in PBS) and add 100 µL/well of cell suspension to the plate (cat #3799, supplier Corning). Centrifuging the plates at 2000 rpm for 5 min and discard the supernatant. Re-suspend the cells in 100 µL/well of Tribody set antibodies (400 nM start, 4-fold dilution, 8 point including 0 point) and incubate the plate for 60 min at 4° C. Centrifuge the plate at 2000 rpm, 4° C. for 5 min and discard supernatant. Then wash the cells 3 times with 170 µL FACS buffer. Re-suspend the cells at 100 µL/well with secondary antibody (goat anti-human Ig Fab-FITC, Cat # 2085-02, Southern biotech) with 1:400 dilution and incubate the plate for 30 min at 4° C. in dark. Centrifuge the plate at 2000 rpm, 4° C. for 5 min and discard supernatant. […] The fluorescence intensity of the staining was measured using flow cytometer (BD, FACSVerse). The geometric mean fluorescence intensity (GMFI; median fluorescence intensity (MFI)) of set antibodies staining was calculated (BD FACSuite software). Dose-response curves were generated and EC50s for thetrispecific variants binding were calculated using GraphPad Prism software.

Experiment [2] addresses T2, NKG2A-CD94-ECD-hFc (human, UniProt P26715 94-233; Q13241 32-179, limits assumed).
T2 construct: extracellular domain; Lot 20200724002, 'provided by CP'; the two-chain layout here is only the reading of the name; also called human NKG2A (recombinant); NKG2A antigen; not shown: human Fc (hFc)
As to the kind of experiment: ELISA on coated NKG2A-CD94-ECD-hFc (FIG. 43D). On the procedure:
(§1) Methods: ELISA binding of Tribody/ProTribody antibody constructs to antigens: Dilute target protein (hCD3epsilon-His (cat # 10977-H08S, supplier Sino Biological); h5T4-His (cat# 19845-H08H, supplier Sino Biological); NKG2A-CD94-ECD-hFc, Lot:20200724002, provided by CP; or NKG2D-ECD-hFc, Lot: 20200413002, provided by CP) into PBS with final concentration of 0.01 µg/mL for hCD3epsilon-His, 0.3 µg/mL for h5T4-His, 1 µg/mL for NKG2A-CD94-ECD-hFc and 0.7 µg/mL for hNKG2D-ECD-hFc respectively and coat 100 µL/well on ELISA plate (cat: 9018, supplier Corning) respectively. Incubate O/N, 4° C. The plates were blocked with 250 µL 1% BSA in PBST for 1 hr at 37° C.Wash 4 times with PBST. All the washes are done using Biotek (Elx 405). All the Tribody set antibodies were diluted to 400 nM and make 4-fold serially dilutions (12 points, including 0 point). Add 100 µL/well diluted antibody constructs solution to plate, incubate for 1 hr at 37° C.Wash 4 times with PBST. Add 100 µL/well anti-human kappa light chain-HRP (1:10000), incubate for 0.5 hr at 37° C. Wash 4 times with PBST. 100 µL/well of TMB substrate was added and incubated at room temperature for 5 min. 100 µL/well of 1N HCl to terminate reaction. Plates were read using ELISA plate reader at 450 nm wavelength (instrunet SpectraMax M5e). Data Analysis was performed using Graphpad prism 5 software by using nonlinear regression (curve fit): log (agonist) vs. response, agonist is antibody concentration (nM) and response is OD value.
For orientation: An ELISA detects its analyte on a solid surface through an enzyme-linked reagent.

Experiment [3] concerns the target T2, NKG2A-CD94-ECD-hFc. The experiment can be described thus: ELISA on coated NKG2A-CD94-ECD-hFc (FIG. 43D), reference IM-1062. On the procedure: as §1, with “Data Analysis was performed using Graphpad prism 5 software by using nonlinear regression (curve fit): log (agonist) vs. response, agonist is antibody concentration (nM) and response is OD value.” left out
Experiment [4] addresses T1, NKG2A/CD94 on CHO cells …. As to the kind of experiment: FACS on CHO cells over-expressing human NKG2A (FIG. 45F). On the procedure:
Then wash the cells 3 times with 170 µL FACS buffer. Re-suspend the cells at 100 µL/well with secondary antibody (goat anti-human Ig Fab-FITC, Cat # 2085-02, Southern biotech) with 1:400 dilution and incubate the plate for 30 min at 4° C. in dark. Centrifuge the plate at 2000 rpm, 4° C. for 5 min and discard supernatant. Then wash the cells 3 times with FACS buffer and analyze the sample with FACS verse. The fluorescence intensity of the staining was measured using flow cytometer (BD, FACSVerse). The geometric mean fluorescence intensity (GMFI; median fluorescence intensity (MFI)) of set antibodies staining was calculated (BD FACSuite software). Dose-response curves were generated and EC50s for thetrispecific variants binding were calculated using GraphPad Prism software.
Results: The expressed trispecific constructs were analyzed for their binding to cells expressing endogenous CD3ε, 5T4 and NKG2A/NKG2D. […] (FIG. 45F).

The target of experiment [5] is T3, NKG2D-ECD-hFc (human, UniProt P26718 73-216).
T3 construct: extracellular domain; Lot 20200413002, 'provided by CP'; also called hNKG2D-ECD-hFc; not shown: human Fc (hFc)
T3 sequence (looked up): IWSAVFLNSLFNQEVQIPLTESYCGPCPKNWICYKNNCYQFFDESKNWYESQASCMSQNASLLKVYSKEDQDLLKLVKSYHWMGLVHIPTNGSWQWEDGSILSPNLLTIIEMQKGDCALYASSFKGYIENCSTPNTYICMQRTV
The experiment can be described thus: ELISA, data not shown. On the procedure: as §1, with “Data Analysis was performed using Graphpad prism 5 software by using nonlinear regression (curve fit): log (agonist) vs. response, agonist is antibody concentration (nM) and response is OD value.” left out

Experiment [6] addresses T4, NKG2D on cells (UniProt P26718 1-216, limits assumed).
T4 construct: whole, on cells
T4 sequence (looked up): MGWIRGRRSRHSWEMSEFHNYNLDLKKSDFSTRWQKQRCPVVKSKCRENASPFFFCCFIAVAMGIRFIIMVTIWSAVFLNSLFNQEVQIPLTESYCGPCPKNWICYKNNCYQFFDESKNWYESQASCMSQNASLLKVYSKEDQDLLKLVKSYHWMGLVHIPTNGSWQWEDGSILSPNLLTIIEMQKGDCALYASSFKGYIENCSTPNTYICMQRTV
The experiment can be described thus: FACS, data not shown. (In general: In flow cytometry, cells or beads pass a laser one at a time.)

For orientation: EC50 means the concentration needed to bring the measured effect to its halfway point. Low readings indicate higher potency in that assay, high ones lower potency in that assay.

T1 sequence (P26715 whole entry, chain 1 of 2): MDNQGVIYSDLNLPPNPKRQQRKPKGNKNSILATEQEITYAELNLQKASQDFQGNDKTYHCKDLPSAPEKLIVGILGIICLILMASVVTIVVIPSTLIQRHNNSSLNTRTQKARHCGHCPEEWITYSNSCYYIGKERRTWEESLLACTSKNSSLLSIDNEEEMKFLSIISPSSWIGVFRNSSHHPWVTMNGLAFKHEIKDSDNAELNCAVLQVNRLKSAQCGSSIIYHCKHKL
T1 sequence (Q13241 whole entry, chain 2 of 2): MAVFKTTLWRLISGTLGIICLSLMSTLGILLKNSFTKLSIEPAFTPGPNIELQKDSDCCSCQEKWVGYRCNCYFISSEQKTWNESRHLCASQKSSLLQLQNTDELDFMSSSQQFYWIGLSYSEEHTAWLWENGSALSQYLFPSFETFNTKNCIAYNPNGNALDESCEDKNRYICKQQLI
T2 sequence (P26715 94-233 limits assumed, chain 1 of 2): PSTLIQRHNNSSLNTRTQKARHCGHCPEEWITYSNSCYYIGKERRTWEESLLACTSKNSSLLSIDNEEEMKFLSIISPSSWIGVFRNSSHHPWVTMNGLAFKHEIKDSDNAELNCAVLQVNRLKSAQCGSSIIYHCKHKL
T2 sequence (Q13241 32-179 limits assumed, chain 2 of 2): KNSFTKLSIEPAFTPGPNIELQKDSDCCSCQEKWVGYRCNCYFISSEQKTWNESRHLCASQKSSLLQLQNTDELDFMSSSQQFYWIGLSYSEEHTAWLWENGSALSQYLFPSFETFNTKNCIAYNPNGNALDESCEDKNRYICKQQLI

B1: IM-1273 bi-NKG2A scFv Tribody, CD3 mutant variant (other)
heavy: GGSGGSEVQLVESGGGLVQPGGSLRLSCAASGFTFNTYAMNWVRQAPGKGLEWVARIGSGGNGYATYYADSVKDRFTISRDDSKNTLYLQMNSLRAEDTAVYYCVRHGNFGASARSWFAYWGQGTMVTVSSASTKGPSVFPLAPSSKSTSGGTAALGCLVKDYFPEPVTVSWNSGALTSGVHTFPAVLQSSGLYSLSSVVTVPSSSLGTQTYICNVNHKPSNTKVDKRVEPKSCPPCGGGGSDIQMTQSPSSLSASVGDRVTITCRASENIYSYLAWYQQKPGKAPKLLIYNAKTLAEGVPSRFSGSGSGTDFTLTISSLQPEDFATYYCQHHYGTPRTFGGGTKVEIKGGGGSGGGGSGGGGSQVQLVQSGAEVKKPGASVKVSCKASGYTFTSYWMNWVRQAPGQGLEWMGRIDPYDSETHYAQKLQGRVTMTTDTSTSTAYMELRSLRSDDTAVYYCARGGYDFDVGTLYWFFDVWGQGTTVTVSSGGGGSDIQMTQSPSSLSASVGDRVTITCRASENIYSYLAWYQQKPGKAPKLLIYNAKTLAEGVPSRFSGSGSGTDFTLTISSLQPEDFATYYCQHHYGTPRTFGGGTKVEIKGGGGSGGGGSGGGGSQVQLVQSGAEVKKPGASVKVSCKASGYTFTSYWMNWVRQAPGQGLEWMGRIDPYDSETHYAQKLQGRVTMTTDTSTSTAYMELRSLRSDDTAVYYCARGGYDFDVGTLYWFFDVWGQGTTVTVSS
light: GGSGGSQAVVTQEPSLTVSPGGTVTLTCRSSTGAVTRGNAANWVQQKPGQAPRGLIGGTNARAPGTPARFSGSLLGGKAALTLSGVQPEDEAEYYCALGYSGLWVFGGGTKLTVLGQPKAAPSVTLFPPSSEELQANKATLVCLISDFYPGAVTVAWKADSSPVKAGVETTTPSKQSNNKYAASSYLSLTPEQWKSHRSYSCQVTHEGSTVEKTVAPTECPPCSGGGSDIQMTQSPSSLSASVGDRVTITCRASQGISNYLAWFQQKPGKAPKSLIYRANRLQSGVPSRFSGSGSGTDFTLTISSLQPEDVATYYCLQYDDFPWTFGQGTKLEIKGGGGSGGGGSGGGGSGGGGSQVQLVQSGAEVKKPGASVKVSCKASGYTFTSFWMHWVRQAPGQGLEWMGRIDPNRGGTEYNEKAKSRVTMTADKSTSTAYMELSSLRSEDTAVYYCAGGNPYYPMDYWGQGTTVTVSS
notes: Two anti-NKG2A scFv in tandem, CD3 arm mutated; also called IM-1273 CD3 mutant variant
For B1, the results for the “fold improved binding affinity against IM-1062” value in experiment [1] and in experiment [3] were about 80 fold and about 60 fold, respectively. Besides, the EC50 in experiment [2] was found to be 0.1 nM; in experiment [4], 0.2 nM.

B2: IM-1091 Tribody, NKG2D mutant variant (other)
heavy: GGSGGSEVQLVESGGGLVQPGGSLRLSCAASGFTFNTYAMNWVRQAPGKGLEWVARIRSKYNNYATYYADSVKDRFTISRDDSKNTLYLQMNSLRAEDTAVYYCVRHGNFGNSYVSWFAYWGQGTMVTVSSASTKGPSVFPLAPSSKSTSGGTAALGCLVKDYFPEPVTVSWNSGALTSGVHTFPAVLQSSGLYSLSSVVTVPSSSLGTQTYICNVNHKPSNTKVDKRVEPKSCPPCGGGGSQSALTQPASVSGSPGQSITISCSGSSSNIGNNAVNWYQQLPGKAPKLLIYADDLLPSGVSDRFSGSKSGTSAFLAISGLQSEDEADYYCAAWDDSLNGPVFGGGTKLTVLGGGGSGGGGSGGGGSGGGGSQVQLVESGGGLVKPGGSLRLSCAASGFTFSSYGMHWVRQAPGKGLEWVAFIRYDGSNKYYADSVKGRFTISRDNSKNTLYLQMNSLRAEDTAVYYCAKDAGEGDGTYFDYWGQGTTVTVSS
light: B1 light with R37T, G38S, A40Y, A61K, G99W, G102N
notes: CD3/5T4/NKG2D Tribody with mutated anti-NKG2D arm
As to B2, the binding result in experiment [5] and in experiment [6] was “no binding” throughout.
